B1: CPEB3 Ribozyme (parent)
chain: GGGGGCCACAGCAGAAGCGUUCACGUCGCGGCCCCUGUCAGAUUCUGGUGAAUCUGCGAAUUCUGCUGU

Variants of: B1
Assay: self-cleavage, relative activity (ratio to wild type); higher = more cleavage; co-transcriptional

Variant | self-cleavage
GGGGGCCACAGCAGAAACGUUCACGUCGCGGCCCCUGUCAGAUUCUGGUGAAUCUGCGAAUUCUCCUGU [G17A G65C] | 0.27
GGGGGCCACAGCAGAAACGUUCACGUCGCGGCCCCUGUCAGAUUCUGGUGAAUCUGCGAAUUCUUCUGU [G17A G65U] | 0.225
GGGGGCCACAGCAGAAACGUUCACGUCGCGGCCCCUGUCAGAUUCUGGUGAAUCUGCGAAUUCUACUGU [G17A G65A] | 0.203
GGGGGCCACAGCAGAAACGUUCACGUCGCGGCCCCUGUCAGAUUCUGGUGAAUCUGCGAAUUCUGCGGU [G17A U67G] | 0.542
GGGGGCCACAGCAGAAACGUUCACGUCGCGGCCCCUGUCAGAUUCUGGUGAAUCUGCGAAUUCUGCAGU [G17A U67A] | 0.45
GGGGGCCACAGCAGAAACGUUCACGUCGCGGCCCCUGUCAGAUUCUGGUGAAGCUGCGAAUUCUGCUGU [G17A U53G] | 0.38
GGGGGCCACAGCAGAAACGUUCACGUCGCGGCCCCUGUCAGAUUCUGGUGAACCUGCGAAUUCUGCUGU [G17A U53C] | 0.22
GGGGGCCACAGCAGAAACGUUCACGUCGCGGCCCCUGUCAGAUUCUGGUGAAACUGCGAAUUCUGCUGU [G17A U53A] | 0.237
GGGGGCCACAGCAGAAACGUUCACGUCGCGGCCCCUGUCAGAUCCUGGUGAAUCUGCGAAUUCUGCUGU [G17A U44C] | 0.255
GGGGGCCACAGCAGAAACGUUCACGUCGCGGCCCCUGUCAGAUGCUGGUGAAUCUGCGAAUUCUGCUGU [G17A U44G] | 0.302
GGGGGCCACAGCAGAAACGUUCACGUCGCGGCCCCUGUCAGAUACUGGUGAAUCUGCGAAUUCUGCUGU [G17A U44A] | 0.397
GGGGGCCACAGCAGAAACGUUCACGUCGCGGCCCCUGUCAGAUUCUGGUGAAUCUGCUAAUUCUGCUGU [G17A G58U] | 0.539
GGGGGCCACAGCAGAAACGUUCACGUCGCGGCCCCAGUCAGAUUCUGGUGAAUCUGCGAAUUCUGCUGU [G17A U36A] | 0.0937
GGGGGCCACAGCAGAAACGUUCACGUCGCGGCCCCGGUCAGAUUCUGGUGAAUCUGCGAAUUCUGCUGU [G17A U36G] | 0.117
GGGGGCCACAGCAGAAACGUUCACGUCGCGGCCCCCGUCAGAUUCUGGUGAAUCUGCGAAUUCUGCUGU [G17A U36C] | 0.225
GGGGGCCACAGCAGAAACGUUCACGUCGCGGCCCCUGUCAGAUUCUGGUGAAUCUGCGAAUGCUGCUGU [G17A U62G] | 0.198
GGGGGCCACAGCAGAAACGUUCACGUCGCGGCCCCUGUCAGAUUCUGGUGAAUCUGCGAAUCCUGCUGU [G17A U62C] | 0.193
GGGGGCCACAGCAGAAACGUUCACGUCGCGGCCCCUGUCAGAUUCUGGUGAAUCUGCGAAUUCUGCUGG [G17A U69G] | 0.677
GGGGGCCACAGCAGAAACGUUCACGUCGCGGCCCCUGUCAGAUUCUGGUGAAUCUGCGAAUUCUGCUGC [G17A U69C] | 0.883
GGGGGCCACAGCAGAAACGUUCACGUCGCGGCCCCUGUCAGAUUCUGGUGAAUCGGCGAAUUCUGCUGU [G17A U55G] | 0.16

Variant | self-cleavage
GGGGGCCACAGCAGAAACGUUCACGUCGCGGCCCCUGUCAGAUUCUGGGGAAUCUGCGAAUUCUGCUGU [G17A U49G] | 0.444
GGGGGCCACAGCAGAAACGUUCACGUCGCGGCCCCUGUCAGAUUCUGGAGAAUCUGCGAAUUCUGCUGU [G17A U49A] | 0.611
GGGGGCCACAGCAGAAACGUUCACGUCGCGGCCCCUGUCAGAUUCUGGCGAAUCUGCGAAUUCUGCUGU [G17A U49C] | 0.486
GGGGGCCACAGCAGAAACGUUCACGUCGCGGCCCCUGUCAGAUUCUGGUGAAUCUGCGAAUUCUGCUUU [G17A G68U] | 0.751
GGGGGCCACAGCAGAAACGUUCACGUCGCGGCCCCUGUCAGAUUCUGGUGAAUCUGCGAAUUCUGCUCU [G17A G68C] | 0.704
GGGGGCCACAGCAGAAACGUUCACGUCGCGGCCCCUGUCAGAUUCUGGUGAAUCUGCGAAUUCUGCUAU [G17A G68A] | 0.843
GGGGGCCACAGCAGAAACGUUCACGUCGCGGCCCCUGUCAGAUUCUGGUGAAUCUGCGAAGUCUGCUGU [G17A U61G] | 0.237
GGGGGCCACAGCAGAAACGUUCACGUCGCGGCCCCUGUCAGAUUCCGGUGAAUCUGCGAAUUCUGCUGU [G17A U46C] | 0.417
GGGGGCCACAGCAGAAACGUUCACGCCGCGGCCCCUGUCAGAUUCUGGUGAAUCUGCGAAUUCUGCUGU [G17A U26C] | 0.335
GGGGGCCACAGCAGAAACGUUCACGGCGCGGCCCCUGUCAGAUUCUGGUGAAUCUGCGAAUUCUGCUGU [G17A U26G] | 0.413
GGGGGCCACAGCAGAAACGUACACGUCGCGGCCCCUGUCAGAUUCUGGUGAAUCUGCGAAUUCUGCUGU [G17A U21A] | 0.384
GGGGGCCACAGCAGAAACGUCCACGUCGCGGCCCCUGUCAGAUUCUGGUGAAUCUGCGAAUUCUGCUGU [G17A U21C] | 0.169
GGGGGCCACAGCAGAAACGUGCACGUCGCGGCCCCUGUCAGAUUCUGGUGAAUCUGCGAAUUCUGCUGU [G17A U21G] | 0.128
GGGGGCCACAGCAGAAACGUUCACGUCGCGGCCCCUGCCAGAUUCUGGUGAAUCUGCGAAUUCUGCUGU [G17A U38C] | 0.314
GGGGGCCACAGCAGAAACGUUCACGUCGCGGCCCCUGGCAGAUUCUGGUGAAUCUGCGAAUUCUGCUGU [G17A U38G] | 0.11
GGGGGCCACAGCAGAAACGCUCACGUCGCGGCCCCUGUCAGAUUCUGGUGAAUCUGCGAAUUCUGCUGU [G17A U20C] | 0.0978
GGGGGCCACAGCAGAAACGUUCACGUCGCGGCCCCUGUCAGAUUCUGGUGAAUCUGCGAAUUCAGCUGU [G17A U64A] | 0.211
GGGGGCCACAGCAGAAACGUUCACGUCGCGGCCCCUGUCAGAUUCUGGUGAAUCUGCGAAUUCCGCUGU [G17A U64C] | 0.242
GGGGGCCACAGCAGAAACGUUCACGUCGCGGCCCCUGUCAGAUUCUGGUGAAUCUGCGAAUUCGGCUGU [G17A U64G] | 0.256

Source: the RNAGym collection of RNA variant scans (doi:10.7554/elife.80360)
